Values quoted from earlier work, collected in PMC3905167.

How the values were obtained:
Assay in all cases: given as Ka
[1] = molecular target: FcγRI (Homo sapiens) (UniProt P12314)
[2] = molecular target: FcγRIIIa (F158) (Homo sapiens) (UniProt P08637)
[3] = molecular target: FcγRIIIa (V158) (Homo sapiens) (UniProt P08637)
[4] = molecular target: FcγRIIa (H131) (Homo sapiens) (UniProt P12318)
[5] = molecular target: FcγRIIa (R131) (Homo sapiens) (UniProt P12318)
FcγRIIa (R131) (Homo sapiens), sequence (P12318 34-317): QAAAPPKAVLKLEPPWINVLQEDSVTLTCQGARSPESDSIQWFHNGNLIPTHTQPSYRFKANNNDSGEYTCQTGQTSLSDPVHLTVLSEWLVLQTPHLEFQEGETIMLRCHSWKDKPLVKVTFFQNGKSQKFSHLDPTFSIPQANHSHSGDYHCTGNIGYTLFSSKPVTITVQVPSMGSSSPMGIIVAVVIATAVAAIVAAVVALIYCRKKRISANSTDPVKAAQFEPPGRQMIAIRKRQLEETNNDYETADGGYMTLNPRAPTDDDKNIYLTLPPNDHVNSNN

IgG4, sequence (P01861 whole entry): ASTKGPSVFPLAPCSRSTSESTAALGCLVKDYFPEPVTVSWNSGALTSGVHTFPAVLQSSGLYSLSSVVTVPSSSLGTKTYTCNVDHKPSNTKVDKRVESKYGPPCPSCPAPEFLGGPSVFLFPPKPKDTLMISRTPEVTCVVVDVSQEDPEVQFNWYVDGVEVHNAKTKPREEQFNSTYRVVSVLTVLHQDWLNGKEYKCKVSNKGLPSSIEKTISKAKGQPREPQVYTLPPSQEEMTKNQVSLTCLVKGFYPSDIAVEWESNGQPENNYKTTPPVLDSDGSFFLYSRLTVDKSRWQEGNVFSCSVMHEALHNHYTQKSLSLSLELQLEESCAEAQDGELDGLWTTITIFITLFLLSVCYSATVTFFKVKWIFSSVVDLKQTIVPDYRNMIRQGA
FcγRI (Homo sapiens), sequence (P12314 16-374): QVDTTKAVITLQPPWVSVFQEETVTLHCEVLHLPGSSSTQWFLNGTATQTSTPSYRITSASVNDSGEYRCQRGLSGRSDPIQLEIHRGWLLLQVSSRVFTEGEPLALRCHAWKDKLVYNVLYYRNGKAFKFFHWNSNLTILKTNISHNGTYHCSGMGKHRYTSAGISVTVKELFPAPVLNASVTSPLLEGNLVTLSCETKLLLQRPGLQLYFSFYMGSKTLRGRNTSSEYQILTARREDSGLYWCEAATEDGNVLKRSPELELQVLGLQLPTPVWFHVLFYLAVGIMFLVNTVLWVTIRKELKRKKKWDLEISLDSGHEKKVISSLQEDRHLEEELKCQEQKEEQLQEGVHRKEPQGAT
FcγRIIIa (V158) (Homo sapiens), sequence (P08637 17-254): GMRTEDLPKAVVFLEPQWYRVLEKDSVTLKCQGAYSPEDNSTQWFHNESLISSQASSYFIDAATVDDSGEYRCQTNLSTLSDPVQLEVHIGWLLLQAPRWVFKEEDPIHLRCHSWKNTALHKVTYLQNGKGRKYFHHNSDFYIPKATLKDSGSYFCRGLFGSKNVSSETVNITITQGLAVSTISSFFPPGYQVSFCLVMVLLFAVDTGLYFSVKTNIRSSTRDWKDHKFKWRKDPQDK
FcγRIIIa (F158) (Homo sapiens), sequence (P08637 17-254): as above
FcγRIIa (H131) (Homo sapiens), sequence (P12318 34-317): as the sequence (P12318 34-317) above

For IgG1 (from UniProt P01857), the Kd [1] is listed as 15.4 nM, the Kd [2] is listed as 855 nM and the Kd [3] is listed as 500 nM. For the same substance, the Kd [4] was 0.192 µM and the Kd [5] was 286 nM.
In the case of IgG4 (from UniProt P01861), the Kd [1] is given as 29.4 nM, the Kd [2] is given as 5000 nM and the Kd [3] is given as 4000 nM. For the same substance, the Kd [4] was 5.88 µM and the Kd [5] was 4760 nM.
